This note sets out measurements from paper doi:10.1101/2020.07.24.219303.

This assay has as its target ParA (pMF1.22) co-expressed with ParC from pET15b (Myxococcus fulvus 124B02 (plasmid pMF1)). In words: SDS-PAGE band identified by mass spectrometry.

As to “ParC (pMF1.21) co-expressed in front of ParA from pET15b (natural protein)”, the stoichiometry N (ParC:ParA molar ratio) is 1.
